Publication PMC6885550 (Journal of molecular biology, 2019)
Where two headings read alike, the source gives them in different places. No end group written: not given here.

Key:
FRET or BRET [1] = biological target: the molecule itself; assay: FRET or BRET
FRET or BRET [2] = biological target: the molecule itself; assay: FRET or BRET; remark: listed apart in the source

| Protein | stoichiometry N (FRET or BRET [1]) | stoichiometry N (FRET or BRET [2]) |
| --- | --- | --- |
| MTGKNWILISTTTPKSLEDEIVGRLLKILFVIFVDLISIIYVVITS (natural protein, UniProt P0DMT0 1-46, looked up) [YFP-myoregulin (MLN)] | > 2 | 2 |
| YFP-phospholamban (PLB) (natural protein, UniProt P26678 1-52, looked up, cysteine pairing not given here) {YFP}-MEKVQYLTRSAIRRASTIEMPQQARQKLQNLFINFCLILICLLLICIIVMLL | > 2 | 2 |
| YFP-endoregulin (ELN) (natural protein, UniProt P0DI80 1-62, looked up) MDQLVFKETIWNDAFWQNPWDQGGLAVIILFITAVLLLILFAIVFGLLTSTENTQCEAGEEE | > 2 | 2 |
| YFP-ALN (another-regulin) (natural protein, UniProt Q8WVX3 1-66, looked up) MEVDAPGVDGRDGLRERRGFSEGGRQNFDVRPQSGANGLPKHSYWLDLWLFILFDVVVFLFVYFLP | > 2 | 2 |
